According to paper PMC7145394, “Molecular and Low-Resolution Structural Characterization of the Na^+-Translocating Glutaconyl-CoA Decarboxylase From Clostridium symbiosum” (Frontiers in Microbiology, 2020):
Values joined by “and” are separate entries in the source; they are usually repeats but may differ in a detail not shown here. Equal entries are not always repeated.

B3: GcdA, subunit of glutaconyl-CoA decarboxylase (Gcd) from Clostridium symbiosum (enzyme, UniProt B7TVP1 1-588, looked up)
chain: MNMYSMPGYFQNMPTIGKELVNPNPENEQEIKAVESDIHESIKKALDAGITSEEKLNERGQLSAMQRINALIDPGTWCPLNSLFNPENNKFGTTNIVNGLGRVDGKWVYIVASDNKKMAGAWVPGQAENLIRCSDAAKMMHLPLIYLLNCSGVEFPNQDKVYPNRRGGGTPFFRNSELNQLGIPVIVGIYGTNPAGGGYHSISPTILIAHQDANMAVGGAGILSGMNPKGYIDDEAAEQIIAAQIENSKLKVPAPGSVPIHYDETGFFREVYQNDLGVIDGIKKYISYLPAYNLEFFRVDTPKAPQLPAEDLYSIIPMNQKRPYDIYEVIARLFDNSEFSEYKKGYGPEMVTGLAKVNGLLVGVIANVQGLLMNYPEYKQNSVGIGGKLYRQGLIKMNEFVTLCARDRIPLIWLQDTTGIDVGDEAEKAELLGLGQSLIYSIENSKLPSLEITIRKASAAAHYVLGGPQGNNTNVFSIGTGACEYYVMPGETAANAMYSRKLVKAKKAGEDLQPIIGKMNDMIQMYTDKSRPKYCTEKGMVDEIVDMTEVRPYIQAFTEAAYQNPQSICPMHQMLTPRSTREFETFGK
notes: GcdA, hydrophilic carboxyltransferase subunit of glutaconyl-CoA decarboxylase, Clostridium symbiosum, 65 kDa; For LILBID-MS (soft mode) and EM the complex was cross-linked with glutaraldehyde (GraFix)
B4: GcdC2, biotin carrier subunit of glutaconyl-CoA decarboxylase (Gcd) from Clostridium symbiosum (natural protein, UniProt B7TVP3 1-139, looked up)
chain: MKYTATLNGKQYDVELERIGEYEPIPRYGEAAPAPAAPITAPAAAPAPVAAAPAPAPAPAAPAPAPAAGGTTVEAPMPGKVLDVKVAAGQAVKFGQVVITMEAMKMETEIVAPADGTVAQILVKAGDAVETGTAMVVLN
modifications: biotin covalently bound (C-terminal region)
notes: GcdC2, biotin carrier subunit of glutaconyl-CoA decarboxylase, Clostridium symbiosum, 14 kDa; N-terminal region of 30 amino acids, AP region of 39, C-terminal region of 70; Surmised: its biotin is what the monomeric avidin column holds
B5: GcdC1, biotin carrier subunit of glutaconyl-CoA decarboxylase (Gcd) from Clostridium symbiosum (natural protein, UniProt B7TVP4 1-149, looked up)
chain: MKYIATINGKRYEVEVERVEGYKSLDRNGVAAPKAPALASTAPVQRPAAPAPAAPAPAAAPAPAAAPAPVAAPAPAAAGATTVEAPMPGKVLDVKVTAGQVVKYGDVVAIMEAMKMETEIVAPADGTVSQILVKAGDPVDTGAAMVVLN
modifications: biotin covalently bound (C-terminal region)
notes: GcdC1, biotin carrier subunit of glutaconyl-CoA decarboxylase, Clostridium symbiosum, 15 kDa; N-terminal region of 30 amino acids, AP region of 48, C-terminal region of 71; Surmised: its biotin is what the monomeric avidin column holds

Key:
[1] = target: T1, Gcd (glutaconyl-CoA decarboxylase) from Clostridium symbiosum ([Clostridium] symbiosum, UniProt B7TVP1); test: coupled spectrophotometric assay of crotonyl-CoA formation, […] nm; assay type: biochemical; conditions: decarboxylation to crotonyl-CoA; biotin-dependent, biotin covalently bound to GcdC1/GcdC2; DDM-solubilized enzyme
T1 construct: gene gcdA

[2] = target: B4; test: native MS; LILBID-MS, soft detection mode (14 mJ laser power); 3-7 uM glutaraldehyde-fixed and unconcentrated Gcd complex in 50 mM Tris-HCl pH 7.0, 0.05% DDM, 200 mM NaCl; conditions: both partners purified
[3] = target: B5; test: affinity purification with mass spectrometry; Gcd solubilized from C. symbiosum membranes with 2% DDM in buffer A (50 mM phosphate pH 7.0, 400 mM NaCl, 0.05% DDM), loaded on monomeric avidin agarose, eluted with a biotin step gradient (0-2 mM); bands of SDS-PAGE identified by MALDI-TOF MS; conditions: partners not purified
[4] = target: the molecule itself; test: negative-stain electron microscopy, 3D reconstruction; glutaraldehyde-fixed Gcd (50-80 nM) at 200 mM NaCl, stained with 2% uranyl formate; 2D classification and low-resolution 3D map (cisTEM, RELION-3.0)
[5] = target: the molecule itself; test: native MS; LILBID-MS, soft detection mode (14 mJ laser power); 3-7 uM glutaraldehyde-fixed and unconcentrated Gcd complex in 50 mM Tris-HCl pH 7.0, 0.05% DDM, 200 mM NaCl
[6] = target: B3; test: as above; conditions: both partners purified
[7] = target: B5; test: as above; conditions: both partners purified
[8] = target: B3; test: affinity purification with mass spectrometry; Gcd solubilized from C. symbiosum membranes with 2% DDM in buffer A (50 mM phosphate pH 7.0, 400 mM NaCl, 0.05% DDM), loaded on monomeric avidin agarose, eluted with a biotin step gradient (0-2 mM); bands of SDS-PAGE identified by MALDI-TOF MS; conditions: partners not purified

CC(C)(COP(=O)(O)OP(=O)(O)OC[C@H]1O[C@@H](n2cnc3c(N)ncnc32)[C@H](O)[C@@H]1OP(=O)(O)O)[C@@H](O)C(=O)NCCC(=O)NCCSC(=O)/C=C/CC(=O)O [glutaconyl-CoA]
coupled spectrophotometric assay of crotonyl-CoA formation, 340 nm [1]: Purified Gcd was enzymatically active with respect to crotonyl-CoA formation

B1: GcdD, small subunit of glutaconyl-CoA decarboxylase (Gcd) from Clostridium symbiosum (natural protein, UniProt B7TVP2 1-95, looked up)
chain: MWTEATMPFGQSVIVSLLGISVVFITLVTLALAIVLISKILRSIIKDGAQKPAPAAAPVVSDEADKETLAVLMATIGMDLELPADQFKIVNVKEL
notes: GcdD, small subunit of glutaconyl-CoA decarboxylase, Clostridium symbiosum, 10 kDa; N-terminal transmembrane helix (13-37), AP-rich region (51-60), C-terminal region (61-95)
binding result [2]: binds | binding result [3]: binds

B2: GcdB, subunit of glutaconyl-CoA decarboxylase (Gcd) from Clostridium symbiosum (enzyme, UniProt B7TVP5 1-379, looked up)
chain: MNFFEIMGEMLAQSGFTALTWKNLVMFAISFVLLYMAIKKQYEPLLLLPIAFGMFLANLPLADLMKESEPWYTQGVLRIMYGGVKSSLFPCLIFLCVGAMTDFGPLIANPISLLLGAAAQFGIYIAFMLANATGLFTVGEAAAIGIIGGADGPTAIYIANNLAPDLVAPIAVAAYSYMALIPMIQPPIMKLLTTKKERAIVMKQLRKVSKVEKVVFPVFVVLFCSLLLPSVAPLLGMLMLGNLFRESGVVERLSDTAQNALCNIVTIMLGTTVGATANGDIFLRVQTIAIIAMGLMAFCFSTVGGVLLGKLLCVVTGGKINPLIGSAGVSAVPMAARVSQTVGSKENPTNFLLMHAMGPNVAGVIGSAVAAGFFMLIFK
notes: GcdB, membrane-spanning subunit (11 putative transmembrane helices) of glutaconyl-CoA decarboxylase, Clostridium symbiosum, 35 kDa (39 kDa in the introduction)
stoichiometry N [4]: 2

B3
stoichiometry N [5]: 4 and 2 | stoichiometry N [4]: ~4

B4
binding result [6]: binds | binding result [7]: binds

B5
binding result [8]: binds
